Substitutions are numbered along the chain they refer to.

The labels stand for the following.
T1: recombinant ligand binding domain of mouse SIRPα (mSIRPα) (mouse)
T1 chain: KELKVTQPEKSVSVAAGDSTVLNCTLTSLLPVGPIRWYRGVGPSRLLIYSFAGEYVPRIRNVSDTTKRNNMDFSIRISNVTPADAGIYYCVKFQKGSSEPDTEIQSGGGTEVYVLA

B1: monovalent anti-mSIRPα nanobody Nb15, His6-tagged (VHH)
VHH: QVQLQESGGGSVQAGGSLRLSCATSGLTYSAYCMGWFRQAPGKGRETVAQINLGDGDTYYADSVKGRFAISQDNAKNTVHLLMNGLKPEDTAIYYCAGSDHMCAKWHYWGQGTQVTVSS
modifications: 99mTc tricarbonyl at the His6-tag (in the radioligand binding assay only)
B2: anti-mSIRPα nanobody Nb54 as used in SPR and epitope binning (VHH)
VHH: QVQLQESGGGSVQAGGSLRLSCSASGHMYGSVIGWFRQAPGKERVGVAAIYTYAGSEYYADSVKGRFTVSQDTQDNAKNTVYLQMSSLNVEDTAMYYCAVGFPLGRLTTVRTLASNEYKYWGQGTQVTVSS
notes: source: E. coli WK6, periplasmic extraction, purified (IMAC, SEC)
B3: anti-mSIRPα nanobody Nb89 as used in SPR and epitope binning (VHH)
VHH: QVQLQESGGGLVQPGGSLRLSCAASGFAFSRNSMRWVRQAPGKGLEWVSSISSDGKYTYYTDSVKGRFAISRDNANNTLYLQMNSLKSEDTALYYCSTGGAPASQGTQVTVSS
notes: as for B2
B4: bivalent anti-SIRPα Nb15 (pHEN25 construct, dimerised through a cysteine) (VHH)
VHH: B1 VHH with Q1E
modifications: 99mTc tricarbonyl at the His6-tag (in the radioligand binding assay only)
B5: bivalent anti-SIRPα Nb15 (pHEN25 construct, dimerised through a cysteine) (VHH)
VHH: B1 VHH with Q1E
notes: as the VHH of m7 (Nb15); fourteen amino acid long linker and a cysteine after the His6 tag (pHEN25); The cysteine allows dimerization; The order of His6 tag, linker and cysteine is worded loosely; also called bivalent Nb15; bivalent construct of Nb15; source: E. coli WK6 (pHEN25), periplasmic extraction, purified (IMAC, SEC); not shown: His6, C-terminal, kept
B6: monovalent anti-mSIRPα nanobody Nb15, His6-tagged (VHH)
VHH: B1 VHH
notes: both carry a C-terminal His6; also called monovalent Nb15; anti-SIRPα Nb15; source: E. coli WK6, periplasmic extraction, purified (IMAC, SEC); not shown: His6, C-terminal, kept
B7: anti-mSIRPα nanobody Nb15, HA- and His6-tagged (pMECS) (VHH)
VHH: B1 VHH
notes: An alpaca and two dromedaries were immunised; also called clone 15; source: E. coli WK6, periplasmic extraction, purified (IMAC, SEC)
B8: anti-mSIRPα nanobody Nb54, HA- and His6-tagged (pMECS) (VHH)
VHH: B2 VHH
notes: also called clone 54; source: E. coli WK6, periplasmic extraction, purified (IMAC, SEC)
B9: anti-mSIRPα nanobody Nb89, HA- and His6-tagged (pMECS) (VHH)
VHH: B3 VHH
notes: also called clone 89; source: E. coli WK6, periplasmic extraction, purified (IMAC, SEC)
B10: Nb 33 (VHH)
VHH: QVQLQESGGGLVQPGGSLRLSCAASGFTFSSYFMSWVRQAPGKGLEWVSGINSDGSMTYYLDSVKGRFTMSRDNAKNTLYLEMNSLKSEDTALYYCALRGVFSDYALHSQGTQVTVSS
B11: Nb 75 (VHH)
VHH: B10 VHH with G16D, G26E, T28A, S53T, L61S, M70I, E82Q, A97V, H108Q
B12: Nb 12 (VHH)
VHH: QVQLQESGGGSVQAGGSVKLSCATSGLTYSAYCMGWFRQAPGKGRETVAQINLGDGDTYYADSVKGRFTISLDNARNTVYLQMNSLKPEDTAIYYCAATYSSRCASFGYWGQGTQVTVSS
B13: Nb 92 (VHH)
VHH: QVQLQESGGGSVQAGGSLRLSCAASGYISSTSYVGWFRQAPGKEREKVAEARSGGDYTWYADSVKGRFTISQDNAKNTVYLQMNSLKPEDTAIYYCAAGEFGGPYNNWGQGTQVTVSS
B14: Nb 26 (VHH)
VHH: B1 VHH with S30T, H80Y, G85S, K87Q, G98T, S99T, H101G, M102R, A104Q, H107Q
B15: Nb 1 (VHH)
VHH: QVQLQESGGGSVQAGGSLRLSCSASGHMYGSVIGWFRQAPGKEREGVAAIYTYDGSEYYADSVKGRFTVSQDTQDNAKNTVYLQMSSLNVEDTAMYYCAVGFPLGRLTTVRVLASNEYKYGTQVTVSS
B16: Nb 53 (VHH)
VHH: QVQLQESGGGSVQAGGSLRLSCAASGYTYSDYCMGWFRQAPGKEREVVAEINIVDGDTYYADSVKGRFTISQDNAKNTVYLRMNSLKPDDTAIYVCAATGRRCQGYNSWGQGTQVTVSS
B17: Nb 35 (VHH)
VHH: QVQLQESGGGSVQAGGSLRLSCAASGYSYSSTCMAWFRQVPGKEREGVASINNSGTATYYADSVKGRFTISRDNAKNTLYLLMDNLKPEDTAIYYCAASLRRGQDCLGAIDYWGQGTQVTVSS
B18: Nb 52 (VHH)
VHH: QVQLQESGGGSVQAGGSLRLSCAASGFTYSNYCMAWLRQAPGKERESVAQININDGDTYYAASVKGRFTISQDNAKNTVYLMMNSLKPEDTAIYYCAATGYGCQGYNAWGQGTQVTVSS
B19: Nb 42 (VHH)
VHH: QVQLQESGGGSVQAGGSLRLSCAASGFTYSNYCMAWFRQAPGKERESVAQINNNDGDTYYAASVKGRFTISQDNAKNPVYLQMDSLKPEDTAMYYCAASDSRCLEYKYWGQGTQVTVSS
B20: Nb 3 (VHH)
VHH: QVQLQESGGGSVQAGGSLRLSCAAFGFTYSNYCVTWFRQAPGKERERVASIDRSNGDTLYTESVKGRFTISQDNAKNTVSLVMNSLKPEDTAIYYCAATDRYCADWRTWGQGTQVTVSS
B21: Nb 47 (VHH)
VHH: QVQLQESGGGSVQAGGSLRLSCAASGFTYSLYCMGWFRQAPGKEREKVAEMDKSSGDTDYADSVKGRFTISQDNAKNTVYLMMNSLKPEDTAIYYCAATGYRCQGYNAWGQGTQVTVSS
B22: Nb 25 (VHH)
VHH: QVQLQESGGGSVQAGGSLRLSCAASGHSFTLDCMGWFRQAPGKERESVAEINMYSGNTYYADSVKGRFTISRDSAKSTVNLQMNSLKPEDTAIYFCAAAPTCARWDYRGQGTQVTVSS

T3 sequence (P97797 whole entry, looked up, the tested form may be a part): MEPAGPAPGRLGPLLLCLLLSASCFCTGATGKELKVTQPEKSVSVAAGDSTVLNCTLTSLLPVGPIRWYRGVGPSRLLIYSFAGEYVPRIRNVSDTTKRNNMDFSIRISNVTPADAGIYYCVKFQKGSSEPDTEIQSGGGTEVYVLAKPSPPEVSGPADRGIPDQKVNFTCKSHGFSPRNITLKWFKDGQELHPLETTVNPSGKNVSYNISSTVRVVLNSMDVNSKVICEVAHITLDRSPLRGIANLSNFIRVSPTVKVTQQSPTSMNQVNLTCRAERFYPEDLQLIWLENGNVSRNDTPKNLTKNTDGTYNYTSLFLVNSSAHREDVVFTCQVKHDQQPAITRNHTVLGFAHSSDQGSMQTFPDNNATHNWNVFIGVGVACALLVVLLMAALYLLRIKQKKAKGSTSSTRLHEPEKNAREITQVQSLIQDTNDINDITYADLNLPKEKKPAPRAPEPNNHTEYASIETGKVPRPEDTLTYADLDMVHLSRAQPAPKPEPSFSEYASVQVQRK

One test has as its target T1, recombinant ligand binding domain of …. The test is described as follows: SPR.
Conditions: not given
As to B1, the koff worked out at 0.00809 s⁻¹. On the same count and under the same terms, the value for B2 was 0.221 s⁻¹.

Consider B3, for which the koff was 0.0087 s⁻¹.

For a further test the target is unchanged. The test is described as follows: SPR.
Conditions: not given
This is another data set of the same source.
For B4, the koff was 0.00733 s⁻¹.

A further test shares this target. The test is described as follows: SPR.
Conditions: not given
The source holds these as a separate data set.
As to B1, the Kd turned out to be 49.4 nM. On the same count and under the same terms, the figure for B2 is 354 nM; for B3 it is 6.9 nM.

In another test the target is T2, mouse SIRPα natively expressed on RAW 264.7 macrophages (Mus musculus, endogenous in RAW 264.7 …, UniProt P97797).
T2 construct: also called native murine SIRPα; cell-membrane mSIRPα; source: endogenous, on RAW 264.7 cells
The test is described as follows: radioligand binding; 99mTc-labeled nanobodies at 2, 20 and 200 nM on adherent RAW 264.7 cells, 1 h, 4°C; aspecific binding with 100x molar excess of unlabeled Nb. The conditions noted are these: one partner purified.
On to B5, for which the binding result is reported as “binds”. B6: the binding result is recorded as “binds”.

For another test, the target named is T2, mouse SIRPα natively expressed on RAW …. The test is described as follows: flow cytometry on cells; 1 µg purified nanobody with 2 x 10^5 RAW 264.7 cells, 4°C, 1 h; detected with AF488 anti-HA antibody; threshold triple ΔMFI of the non-targeting BabA Nb19. To be noted: one partner purified. A general note: A flow cytometer gives signals particle by particle.
Turning to B7, the binding result is reported as “binds”. For the molecule B8, the binding result is recorded as “binds”. Still for that read-out and setting: the value for B9 was “binds”.

Another test has as its target T3, recombinant ligand binding domain of mouse SIRPα (mSIRPα) (Mus musculus, strain  …, UniProt P97797).
T3 construct: the results call the antigen the recombinant extracellular domain, the discussion the recombinant ectodomain; Gene ordered at GenScript; Captured on Ni-NTA, so a His tag was present at purification; also called recombinant antigen; recombinant SIRPα; source: E. coli WK6 (pHEN6), periplasmic extract, purified (IMAC on HisPur Ni-NTA, SEC Superdex S75)
The test is described as follows: SPR; Biacore T200; recombinant antigen immobilised by amine coupling on a CM5 chip; nanobodies injected in 2-fold dilutions from 500 to 1.95 nM; 25°C; HBS (20 mM HEPES pH 7.4, 150 mM NaCl, 0.005% Tween-20, 3.4 mM EDTA); 1:1 binding model. The conditions noted are these: both partners purified. In general terms: In SPR one partner is held on a chip, and binding of the other changes the refractive index at the surface.
Regarding B5, the binding result is recorded as “binds”. On the same count and under the same terms, the entry for B6 is “binds”.

On to B2, for which the binding result is “binds”. Regarding B3, the binding result was “binds”.

Another test has as its target T1, recombinant ligand binding domain of …. Nature of the test: SPR.
Conditions: not given
This is another data set of the same source.
On to B4, for which the Kd was 57.4 nM. As for B1, the Kd worked out at 109 nM.

A further test addresses T3, recombinant ligand binding domain of ….
Test: not given
Conditions: not given
On to B10, for which the binding result is listed as “binds”. For B11, the binding result is “binds”. The same measure, in the same setting: the entry for B12 is “binds”; for B13 it is “binds”; for B14 it is “binds”. Same read-out and setting: the value for B15 was “binds”. As to B16, the binding result is on record as “binds”. On the same count and under the same terms, the value for B17 was “binds”; that for B18 was “binds”; that for B19 was “binds”. The same measure, in the same setting: the entry for B20 is “binds”; for B21 it is “binds”. The same measure, in the same setting: the entry for B22 is “binds”.

The term koff denotes a measure of how fast the partners let go of each other. Usually Kd stands for the equilibrium constant for the complex coming apart.

The record behind these values is article PMC8669144, “Imaging of Glioblastoma Tumor-Associated Myeloid Cells Using Nanobodies Targeting Signal Regulatory Protein Alpha” (Frontiers in Immunology, 2021).
